Assay results as given in US20050255113A1, “Methods and compositions for inhibiting polypeptide accumulation associated with neurological disorders” (New York State Department of Health and Abgenix, Inc., priority 1999, published 2005).
No end group written: not given here.

Key:
[1] = target: T1, biotinylated peptide corresponding to the 17 N-terminal amino acid residues of huntingtin (Nt-HD) (UniProt P42858 1-17); assay: BIAcore 2000 surface plasmon resonance, C4 sFv at 60, 80 and 100 nM over biotinylated HD peptide on a streptavidin sensor chip
T1 construct: range 1-17; Synthetic peptide; Captured on streptavidin (beads, plates or a BIAcore chip); also called biotinylated Nt-HD; biotinylated HD-peptide
T1 peptide (looked up): MATLEKLMKAFESLKSF-biotin
Procedure: (§1) For regeneration of the surface after binding of intrabody, 5 μl of 50 mM NaOH containing 1 M NaCl was injected, resulting in a return to baseline. […] The koff was determined from the dissociation part of the sensorgram at the highest concentration of intrabody analyzed by using a flow rate of 20 μl/min. The Kd was calculated as koff/kₒₙ.
(§2) To characterize the precise binding properties of the intrabody of the invention, further qualitative and quantitative studies of sFv binding to immobilized antigen were conducted in vitro.

[2] = target: T1, biotinylated peptide corresponding to …; assay: SPR, BIAcore 2000; HD peptide (1-17) with C-terminal biotin on a streptavidin chip, sFv in flow; 1:1 Langmuir model
Procedure: as §1, §2

[3] = target: T1, biotinylated peptide corresponding to …; assay: SPR, BIAcore 2000; HD peptide (1-17) with C-terminal biotin on a streptavidin chip, sFv in flow
Procedure: as §1, §2

B1: α-Nt-HD-C4 sFv (purified soluble sFv) (scFv)
scFv: QVQLQESGGGLVQPGGSLRLSCAASGFTFSSYSMSWVRQAPGKGLEWVAVISYDGSNKYYADSVKGRFTISRDNSKNTLYLQMNSLRAEDTAVYYCARDRYFDLWGRGTLVTVSSGGGGSGGGGSGGGGSQSALTQPASVSGSPGQSITISCTGTSSDIGAYNYVSWYQQYPGKAPKLLIYDVSNRPSGISNRFSGSKSGDTASLTISGLQAEDEADYYCSSFANSGPLFGGGTKVTVL
notes: Human sFv (VH-linker-VL) from a phage display library; Expressed in E. coli from pSYN-1 and purified on Ni-NTA; In the first ELISA screens it was used as bacterial supernatant from pHEN-1; Two subclones (clone 1, clone 2) were purified; they are treated here as the same molecule; also called N-HD-C4 sFv; anti-huntingtin intrabody C4 sFv; not shown: hexaHis tail from the pSYN-1 vector (sFv is also …)
[1]
  koff: 0.0015 s⁻¹
  kon: 190000 M⁻¹ s⁻¹
[2]
  Kd: 7.9 nM
[3]
  Ka: 1.3e+08 M⁻¹
